{
  "source": "patent US8048659",
  "key": {"[1]": {"target": "T1, EuMac-Peptide-PEGA beads (Formula XII)", "T1 chain": "CWKKKPAPFAAA"}, "[2]": {"target": "T2, H-Cys(Npys)-Trp-Lys-Lys-Lys-Pro-Ala-Pro-Phe-Ala-Ala-Ala-LC-PEGA resin", "T2 chain": "CWKKKPAPFAAA"}},
  "data": [
    {"protein": "Proteinase K Molecular Biology, SIGMA Catalog No. P-4850 (protein) AAQTNAPWGLARISSTSPGTSTYYYDESAGQGSCVYVIDTGIEASHPEFEGRAQMVKTYYYSSRDGNGHGTHCAGTVGSRTYGVAKKTQLFGVKVLDDNGSGQYSTIIAGMDFVASDKNNRNCPKGVVASLSLGGGYSSSVNSAAARLQSSGVMVAVAAGNNNADARNYSPASEPSVCTVGASDRYDRRSSFSNYGSVLDIFGPGTSILSTWIGGSTRSISGTSMATPHVAGLAAYLMTLGKTTAASACRYIADTANKGDLSNIPFGTVNLLAYNNYQA", "values": [
      {"measurement": "absorbance of supernatant at 280 nm after hydrolysis at pH 8.0, 25.5 ug/mL Proteinase K", "setting": "[1]", "value": "the Proteinase K did release a cleavage product containing tryptophan from the EuMac-Peptide-PEGA-Beads"},
      {"measurement": "luminescence of beads before and after 115 min of Proteinase K hydrolysis", "setting": "[1]", "value": "The drastic difference in luminescence before and after Proteinase K hydrolysis demonstrated that the EuMac-labeled part of the peptide was released from the bead"},
      {"measurement": "absorbance of supernatant (275 nm and 350 nm peaks) after hydrolysis at pH 7.1, 15.1 ug/mL Proteinase K", "setting": "[2]", "value": "the release of the free peptide was much greater for the Proteinase K sample"},
      {"measurement": "absorbance of supernatant with time after hydrolysis at pH 8.01, 14.2 and 28.4 ug/mL Proteinase K", "setting": "[2]", "value": "demonstrate that Proteinase K cleaves a peptide from the Peptide-PEGA-Beads"},
      {"measurement": "ratio of cleaved peptide, 28.4 vs. 14.2 ug/mL Proteinase K (absorbance at 280 nm)", "setting": "[2]", "value": "The doubling, of the enzyme concentration resulted in an approximately 1.3 fold increase in cleaved peptide"}
    ]}
  ]
}
